# Experimental data from patent publication US20240181074A1, “PEGYLATED T CELL ENGAGER WITH DUAL SPECIFICITIES TO CD3 AND CD19” (Shenzhen Enduring Biotech, Ltd., priority 2021, published 2024).
# What was measured:
# CD19^+ B cells = test: Spleen B cells in the EAE experiment (flow cytometry); type: in vivo, mice; details: day 15, MEDI-551 treated group
# Excerpt: To better illustrate the mechanism of JY108 in ameliorating EAE symptoms, the spleen B cells in the EAE experiment were examined on day 15, using the same method described in Example 9.
# EAE model = details: cited from earlier work
# MOG specific B cells = test: ELISPOT of residual MOG specific B cells in spinal cord; type: in vivo, mice
# Experimental: Since MOG specific B cells are the major source of autoantibodies for CNS myelination damage, ELISPOT was performed by following the protocol provided by the vendor's manual to compare the residual MOG specific B cells in the spinal cord of the tested animals.
# EAE model mice = test: EAE model, head-to-head comparison of JY108 to MEDI-551 (Example 9); type: in vivo
# Experimental: MEDI-551 (Inebilizumab) is an anti-CD19 monoclonal antibody currently under clinical trial for treating MS. […] For head-to-head comparison, EAE model in this experiment were constructed in the same way as described in Example 8 and MEDI-551 treated group (a single i.v. injection of 250 μg/animal) was included in the experiment. On Day 12 after generation of the EAE model, the male animals were randomly grouped into 4 groups (n=7): MEDI-551 treated group, model group (control), two groups treated with JY108 at 60 μg/animal and at 80 μg/animal with 5 doses in total (Day 14, Day 15, Day 17, Day 19 and Day 21). The clinical scores were recorded for each animal on daily basis (except Day 18). Female mice were grouped similarly (n=7) after day 11 of EAE induction and treated with JY108 (30, 50, 75 μg/animal) and MEDI551 (250 μg/animal).
# Breg cells = Breg cells in spleen of EAE animals (PE-anti-CD19 / FITC-B10 flow cytometry); type: in vivo, mice
# Excerpt: The seemed contradictory results prompted us to see what happened to other related immune cells after JY108 treatment. Using the method described in Example 5, the spleen cells derived from the animals in the EAE experiment were double stained with PE-anti-CD19 and FITC-B10 (a marker for Breg) and counted via flowcytometry.
molecule,measurement,setting,value
"MEDI-551: anti-CD19 monoclonal antibody currently under clinical trial for treating MS (antibody, chains of the INN, looked up, V domains shown) VH: EVQLVESGGGLVQPGGSLRLSCAASGFTFSSSWMNWVRQAPGKGLEWVGRIYPGDGDTNYNVKFKGRFTISRDDSKNSLYLQMNSLKTEDTAVYYCARSGFITTVRDFDYWGQGTLVTVSS VL: EIVLTQSPDFQSVTPKEKVTITCRASESVDTFGISFMNWFQQKPDQSPKLLIHEASNQGSGVPSRFSGSGSGTDFTLTINSLEAEDAATYYCQQSKEVPFTFGGGTKVEIK",CD19^+ B cells in spleen,CD19^+ B cells,almost completely eliminated
same,EAE symptoms of male mice,EAE model; administered on day 7 after EAE induction (Chen 2014),able to delay the EAE symptoms
same,efficacy in EAE model versus anti-CD20 antibody,EAE model; pre-clinical results,more effective than marketed monoclonal anti-CD20 antibody
same,MOG specific B cells in the spinal cord,MOG specific B cells,depleted MOG specific B cells effectively
same,EAE symptoms (clinical score),"EAE model mice; female mice, 250 μg/animal",not effective
same,EAE symptoms (clinical score),"EAE model mice; male mice, single i.v. 250 μg/animal on day 14",did not show any therapeutic effect
same,effect on Breg cells,Breg cells,little effect
